Data on 17 molecules can be found in patent US11781118B2, “Preparation of L-amino acid deaminase mutant and application thereof” (Jiangnan University, priority 2020, dated 2023).

Changes are numbered by the printed parent chain. In names and notes the source's numbering stands.

Data set [1] relates to CC(C)[C@H](N)C(=O)O. The experiment in a line: Kinetic parameters with L-valine as substrate, parent enzyme PmirLAAD WT. It counts as biochemical, Proteus mirabilis. Particulars: other: L-valine substrate, 25° C., initial rate of α-ketoisovaleric acid. On the procedure: (§1) In order to evaluate the mutants, kinetic parameters of the mutant parent PmirLAAD^WT and the mutants PmirLAAD^M1, PmirLAAD^M2, PmirLAAD^M3 and PmirLAAD^M4 at 25° C. were determined in the disclosure.
(§2) kcat/Km was calculated based on the initial rate of α-ketoisovaleric acid produced from hydrolyzed L-valine substrates with different concentrations determined at 25° C. Product inhibition of the parent enzyme and the mutants was determined by a product inhibition constant determination experiment in the transformation process. A PmirLAAD^WT parent enzyme strain and mutant strains were respectively added to a reaction solution with the final concentration of wet cells of 10 g/L. 60 mM L-valine was used as the substrate, 10-100 mM α-ketoisovaleric acid was added to the transformation system, the initial reaction rate V0 was determined after about 30 min of reaction, the maximum reaction rate Vmax was determined after about 2 h of reaction, and the product inhibition constant KPI was calculated according to the following formula: […]

For data set [2], the target named is Proteus mirabilis L-amino acid deaminase (PmirLAAD), wild-type parent, SEQ ID NO: 1 (Proteus mirabilis, UniProt Q51890). Put plainly: Product inhibition constant determination, parent enzyme PmirLAAD WT. It counts as biochemical. Particulars: relative to WT. As to the method:
as §1, §2
(§3) V0: initial reaction rate, Vmax: maximum reaction rate, Km: Michaelis constant, [S]: substrate concentration, [P]: product concentration, KPI: product inhibition constant.

In data set [3] the test system is Proteus mirabilis L-amino acid deaminase (PmirLAAD) mutant M4, S98A/T105A/S106A/L341A, SEQ ID NO: 15. The experiment in a line: Product inhibition constant determination, mutant M4. It is filed as biochemical. As to the method: as §1, §2, §3
For data set [4], the system named is Proteus mirabilis L-amino acid deaminase (PmirLAAD) mutant M3, S98A/T105A/S106A, SEQ ID NO: 13. Put plainly: Product inhibition constant determination, mutant M3. It is filed as biochemical. Particulars: M3 relative to WT. As to the method: as §1, §2, §3
Data set [5] addresses Proteus mirabilis L-amino acid deaminase (PmirLAAD) mutant M2, S98A/T105A, SEQ ID NO: 11 (Proteus mirabilis, UniProt Q51890, S98A/T105A). Put plainly: Product inhibition constant determination, mutant M2. It is filed as biochemical. Particulars: M2 relative to WT. As to the method:
as §1, §2, §3

The subject of data set [6] is Proteus mirabilis L-amino acid deaminase (PmirLAAD) mutant M1, S98A, SEQ ID NO: 3. Put plainly: Product inhibition constant determination, mutant M1. It is filed as biochemical. Particulars: M1 relative to WT. On the procedure:
as §1, §2, §3

The target in data set [7] is Proteus mirabilis L-amino acid deaminase (PmirLAAD) mutant M4, S98A/T105A/S106A/L341A, SEQ ID NO: 15 (Proteus mirabilis, UniProt Q51890, L341A/S106A/S98A/T105A). Put plainly: Kinetic parameters with L-valine as substrate, mutant M4. It is filed as biochemical. Particulars: M4 compared with parent enzyme, "increased by", 25° C. As to the method:
as §1, §2

Data set [8] is described as follows: Shake flask screening of mutants: whole-cell transformation of L-valine, α-ketoisovaleric acid determined by HPLC. It is filed as cell-based, E. coli BL21. Particulars: transformation temperature 25° C., pH 8.0, 24 h. As to the method: Preparation of sample for determining α-ketoisovaleric acid content by HPLC: 1 mL of a transformed transformation solution is centrifuged at 12000 rpm for 5 min, the supernatant is diluted and filtered through a 0.45 μm filtration membrane, and the filtrate is for liquid chromatography.
Determination of α-ketoisovaleric acid content by HPLC: a waters high performance liquid chromatograph (equipped with a UV-visible detector) and a Bio-Rad Aminex HPX-87H (300×7.8 mm, 9 μm) chromatographic column are used, and the mobile phase is dilute sulfuric acid with the concentration of 2.5 mmol/L. The mobile phase is filtered through a 0.22 μm filtration membrane; the filtrate is subjected to ultrasonic degassing; and detection is performed at the flow rate of 0.6 mL/min, the column temperature of 35° C. and the ultraviolet detection wavelength of 210 nm.
(2) Shake flask screening of single mutants: The obtained 4 mutant strains and a strain containing wild-type L-amino acid deaminase were respectively inoculated into an LB seed medium, and cultured at 200 rpm at 37° C. for about 10 h. The products were respectively inoculated into a shake flask fermentation medium with the inoculum size of 5% of the medium by volume, and cultured at 200 rpm at 37° C. until OD600 was about 0.8. IPTG with the final concentration of 0.04 mmol/L was added for induction, and the induction was performed at 200 rpm at 25° C. for 14 h. The product was centrifuged at 6000 rpm for 8 min to collect bacterial cells. The bacterial cells collected by centrifugation were used for later transformation experiments.
Transformation conditions: transformation temperature 25° C., reaction pH 8.0, and transformation time 24 h.
The yield of α-ketoisovaleric acid of the transformation solution after the completion of the transformation was determined by HPLC. Finally, S98A produced α-ketoisovaleric acid at the highest yield.

Turning to “Proteus mirabilis L-amino acid deaminase (PmirLAAD), wild-type parent, SEQ ID NO: 1 (Proteus mirabilis)”, the kcat/Km in data set [1] amounted to 4.33 M⁻¹ s⁻¹.
Turning to `CC(C)C(=O)C(=O)O` [α-ketoisovaleric acid], the “Times of change (KPI)” value stood at 1 in data set [2]; 6.7 in data set [3] (M4 relative to WT); 4.6 in data set [4]; 3.9 in data set [5]; 2.6 in data set [6]. Also, the “increase of product inhibition constant” value in data set [3] (M4 compared with parent enzyme, "increased by") turned out to be 5.7 times.
On to `CC(C)[C@H](N)C(=O)O` [L-valine], for which the “increase of kcat/Km (catalytic efficiency)” value in data set [7] stood at 5.2 times.

B1: PmirLAAD^S98A (protein)
chain: MNISRRKLLLGVGAAGVLAGGAALVPMVRRDGKFVEAKSRASFVEGTQGALPKEADVVIIGAGIQGIMTAINLAERGMSVTILEKGQIAGEQSGRAYAQIISYQTSPEIFPLHHYGKILWRGMNEKIGADTSYRTQGRVEALADEKALDKAQAWIKTAKEAAGFDTPLNTRIIKGEELSNRLVGAQTPWTVAAFEEDSGSVDPETGTPALARYAKQIGVKIYTNCAVRGIETAGGKISDVVSEKGAIKTSQVVLAGGIWSRLFMGNMGIDIPTLNVYLSQQRVSGVPGAPRGNVHLPNGIHFREQADGTYAVAPRIFTSSIVKDSFLLGPKFMHLLGGGELPLEFSIGEDLFNSFKMPTSWNLDEKTPFEQFRVATATQNTQHLDAVFQRMKTEFPVFEKSEVVERWGAVVSPTFDELPIISEVKEYPGLVINTATVWGMTEGPAAGEVTADIVMGKKPVIDPTPFSLDRFKK
In data set [8], B1 returned a α-ketoisovaleric acid of 46.9 g/L.

B2: PmirLAAD^S106A (protein)
chain: B1 chain with A98S, S106A
With B2, the α-ketoisovaleric acid in data set [8] is 44.9 g/L.

B3: PmirLAAD^S106A/L341A (protein)
chain: B1 chain with A98S, S106A, L341A
In turn, B3 showed a α-ketoisovaleric acid in data set [8] of 46.5 g/L.

B4: PmirLAAD^T105A/S106A/L341A (protein)
chain: B1 chain with A98S, T105A, S106A, L341A
With B4, the α-ketoisovaleric acid in data set [8] turned out to be 59.6 g/L.

B5: PmirLAAD^S98A/S106A/L341A (protein)
chain: B1 chain with S106A, L341A
As to B5, the α-ketoisovaleric acid in data set [8] is listed as 53.5 g/L.

B6: PmirLAAD^S98A/T105A (protein)
chain: B1 chain with T105A
Molecule B6 gave a α-ketoisovaleric acid in data set [8] of 52.6 g/L.

B7: PmirLAAD^S98A/T105A/S106A (protein)
chain: B1 chain with T105A, S106A
Turning to B7, in data set [8], the α-ketoisovaleric acid is given as 60.6 g/L.

B8: PmirLAAD^T105A/S106A (protein)
chain: B1 chain with A98S, T105A, S106A
For B8, the α-ketoisovaleric acid in data set [8] was found to be 49.4 g/L.

B9: PmirLAAD^T105A/L341A (protein)
chain: B1 chain with A98S, T105A, L341A
B9: the α-ketoisovaleric acid in data set [8] is 47.1 g/L.

B10: PmirLAAD^T105A (protein)
chain: B1 chain with A98S, T105A
On to B10, for which the α-ketoisovaleric acid in data set [8] was found to be 44.6 g/L.

B11: PmirLAAD^L341A (protein)
chain: B1 chain with A98S, L341A
In data set [8], B11 came in with a α-ketoisovaleric acid of 43.6 g/L.

B12: PmirLAAD^S98A/T105A/L341A (protein)
chain: B1 chain with T105A, L341A
Take B12: in data set [8], the α-ketoisovaleric acid is 56.1 g/L.

B13: PmirLAAD^S98A/S106A (protein)
chain: B1 chain with S106A
On to B13, for which, in data set [8], the α-ketoisovaleric acid is 50.9 g/L.

B14: PmirLAAD^S98A/L341A (protein)
chain: B1 chain with L341A
B14: the α-ketoisovaleric acid in data set [8] came out at 51.5 g/L.

In general, kcat/Km refers to the turnover number divided by the Michaelis constant.
